Data as given in the supplement of paper PMC10724198.
± gives the standard deviation of the averaged measurements.

Key:
Saccharomyces cerevisiae [1] = test: protein stability index of tFT-peptide fusion (C-terminal peptide) (PSI (0-1 scale)); higher = more stable (slower turnover)
Procedure: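 MPS profiling in S. cerevisiae of the tFT-X12 degron library: putative degron peptides plus stable controls, 12 aa, fused to the C-terminus of a sfGFP-mCherry timer. Cells are FACS-sorted into 8 mCherry/sfGFP bins and deep-sequenced. PSI runs from 0 (unstable) to 1 (stable). Backgrounds are wild type, das1Δ and doa10Δ at 30 °C, and wild type, das1Δ, cdc34-1 and cdc53-1 at 37 °C; 2-3 technical replicates each.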

Saccharomyces cerevisiae [2] = test: as above; details: genetic background: wild type; temperature: 30 C
[3] = genetic background: cdc34-1, temperature: 37 C
[4] = genetic background: cdc53-1, temperature: 37 C
[5] = genetic background: das1 deletion, temperature: 30 C
[6] = genetic background: das1 deletion, temperature: 37 C
[7] = genetic background: doa10 deletion, temperature: 30 C
[8] = genetic background: wild type, temperature: 30 C
[9] = genetic background: wild type, temperature: 37 C
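Also: PSI is a weighted mean of sequencing reads over stability bins, variants kept only with over 10 reads, mCherry proximal and sfGFP distal, peptide attached via GGGS linker.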

Sequence | protein stability index (Saccharomyces cerevisiae [1]; [3]) | protein stability index (Saccharomyces cerevisiae [1]; [4]) | protein stability index (Saccharomyces cerevisiae [1]; [5]) | protein stability index (Saccharomyces cerevisiae [1]; [6]) | protein stability index (Saccharomyces cerevisiae [1]; [7]) | protein stability index (Saccharomyces cerevisiae [1]; [8]) | protein stability index (Saccharomyces cerevisiae [1]; [9]) | protein stability index (Saccharomyces cerevisiae [2])
VSIVLHSVPCGG | 0.514 ± 0.029 | 0.5211 ± 0.0032 | 0.389 ± 0.019 | 0.54459 ± 0.0005 | 0.361 ± 0.011 | 0.392 ± 0.024 | 0.519 ± 0.011 | 0.453 ± 0.035
VSRVHIRIEGNH | 0.694 ± 0.027 | 0.755 ± 0.028 | 0.622 ± 0.017 | 0.7218 ± 0.0064 | 0.635 ± 0.026 | 0.634 ± 0.035 | 0.70121 ± 0.00047 | 0.528 ± 0.082
VSVQVRCCPWVG | 0.679 ± 0.037 | 0.735 ± 0.013 | 0.622 ± 0.011 | 0.728 ± 0.014 | 0.618 ± 0.031 | 0.629 ± 0.016 | 0.709 ± 0.011 | 0.7153 ± 0.0063
VVATLRCLRCSV | 0.474 ± 0.014 | 0.501 ± 0.052 | 0.346 ± 0.035 | 0.5244 ± 0.0026 | 0.236 ± 0.014 | 0.273 ± 0.043 | 0.441 ± 0.013 | 0.405 ± 0.021
VVCFVVCGFYLG | 0.235 ± 0.018 | 0.316 ± 0.021 | 0.261 ± 0.025 | 0.452 ± 0.011 | 0.224 ± 0.011 | 0.242 ± 0.051 | 0.428 ± 0.024 | 0.205 ± 0.055
VVCLLGIFYGFC | 0.382 ± 0.023 | 0.497 ± 0.045 | 0.313 ± 0.031 | 0.5138 ± 0.00014 | 0.293 ± 0.021 | 0.307 ± 0.031 | 0.51 ± 0.014 | 0.446 ± 0.07
VVLCQVCVLWGW | 0.0623 ± 0.011 | 0.202 ± 0.029 | 0.167 ± 0.031 | 0.252 ± 0.01 | 0.148 ± 0.0088 | 0.151 ± 0.029 | 0.229 ± 0.025 | 0.257 ± 0.016
VVLVLLCIGRLL | 0.367 ± 0.012 | 0.511 ± 0.026 | 0.305 ± 0.033 | 0.5545 ± 0.0033 | 0.27 ± 0.0062 | 0.3 ± 0.026 | 0.475 ± 0.011 | 0.376 ± 0.0063
VVWIQRTVLSLI | 0.565 ± 0.038 | 0.603 ± 0.015 | 0.505 ± 0.03 | 0.6 ± 0.011 | 0.151 ± 0.0065 | 0.184 ± 0.027 | 0.327 ± 0.0052 | 0.27 ± 0.049
VWFFGVVLGGLW | 0.527 ± 0.071 | 0.554 ± 0.0091 | 0.423 ± 0.031 | 0.584 ± 0.014 | 0.4157 ± 0.00077 | 0.421 ± 0.018 | 0.561 ± 0.03 | 0.4443 ± 0.0021
VWRLCFPFALVR | 0.0577 ± 0.022 | 0.0537 ± 0.012 | 0.155 ± 0.025 | 0.18 ± 0.023 | 0.225 ± 0.0026 | 0.132 ± 0.025 | 0.1406 ± 0.00093 | 0.194 ± 0.02
VWVISLCIGGVG | 0.298 ± 0.0059 | 0.366 ± 0.0041 | 0.241 ± 0.026 | 0.399 ± 0.011 | 0.205 ± 0.011 | 0.225 ± 0.021 | 0.3811 ± 0.002 | 0.314 ± 0.025
VYFRMGFMRVCV | 0.487 ± 0.05 | 0.5 ± 0.037 | 0.416 ± 0.032 | 0.554 ± 0.0079 | 0.32 ± 0.013 | 0.344 ± 0.027 | 0.493 ± 0.015 | 0.4611 ± 0.0042
VYFRYWLLVVVF | 0.0945 ± 0.029 | 0.106 ± 0.022 | 0.148 ± 0.034 | 0.215 ± 0.0027 | 0.117 ± 0.029 | 0.101 ± 0.026 | 0.15 ± 0.0062 | 0.129 ± 0.019
VYRILFWFLCFG | 0.489 ± 0.023 | 0.406 ± 0.072 | 0.422 ± 0.026 | 0.564 ± 0.043 | 0.4545 ± 0.0021 | 0.412 ± 0.01 | 0.529 ± 0.045 | 0.4679 ± 0.0011
WDPEVVHRLWLN | 0.587 ± 0.037 | 0.772 ± 0.029 | 0.662 ± 0.034 | 0.766 ± 0.013 | 0.125 ± 0.0063 | 0.14 ± 0.0092 | 0.155 ± 0.019 | 0.237 ± 0.019
WFCCAQRGVIVG | 0.446 ± 0.018 | 0.452 ± 0.028 | 0.336 ± 0.024 | 0.502 ± 0.0087 | 0.311 ± 0.011 | 0.336 ± 0.026 | 0.478 ± 0.0083 | 0.405 ± 0.012
WFFRLFFLFFSG | 0.34 ± 0.008 | 0.335 ± 0.019 | 0.4 ± 0.028 | 0.502 ± 0.019 | 0.563 ± 0.022 | 0.371 ± 0.019 | 0.412 ± 0.02 | 0.383 ± 0.0048
WFLMVILYTVYG | 0.157 ± 0.0068 | 0.2 ± 0.0073 | 0.182 ± 0.035 | 0.304 ± 0.0055 | 0.149 ± 0.033 | 0.187 ± 0.032 | 0.278 ± 0.013 | 0.299 ± 0.0077
WGCTGGRGRLVC | 0.69 ± 0.025 | 0.74 ± 0.013 | 0.643 ± 0.029 | 0.7405 ± 0.0052 | 0.254 ± 0.011 | 0.295 ± 0.013 | 0.555 ± 0.024 | 0.428 ± 0.049
